Source: PMC4510650, “TD-60 links RalA GTPase function to the CPC in mitosis” (Nature Communications, 2015)

Target: T1, human TD-60 with an amino-terminal streptavidin-binding protein (SBP) tag (human, UniProt Q9P258 1-522)
T1 construct: TD-60 (RCC2), human; cDNA codon optimized and made synthetically; The far-western sentence says only 'purified TD-60'; The GEF assay names it 'SBP-tagged recombinant TD-60'; far-western methods are in the Supplementary Methods; also called SBP-TD-60; RCC2; source: Sf9 cells (baculovirus, pFastBacI), purified
Test: far-Western; purified RalA or purified Ran tested on purified TD-60; details only in the Supplementary Methods
Conditions: both partners purified

T1 sequence (Q9P258 whole entry): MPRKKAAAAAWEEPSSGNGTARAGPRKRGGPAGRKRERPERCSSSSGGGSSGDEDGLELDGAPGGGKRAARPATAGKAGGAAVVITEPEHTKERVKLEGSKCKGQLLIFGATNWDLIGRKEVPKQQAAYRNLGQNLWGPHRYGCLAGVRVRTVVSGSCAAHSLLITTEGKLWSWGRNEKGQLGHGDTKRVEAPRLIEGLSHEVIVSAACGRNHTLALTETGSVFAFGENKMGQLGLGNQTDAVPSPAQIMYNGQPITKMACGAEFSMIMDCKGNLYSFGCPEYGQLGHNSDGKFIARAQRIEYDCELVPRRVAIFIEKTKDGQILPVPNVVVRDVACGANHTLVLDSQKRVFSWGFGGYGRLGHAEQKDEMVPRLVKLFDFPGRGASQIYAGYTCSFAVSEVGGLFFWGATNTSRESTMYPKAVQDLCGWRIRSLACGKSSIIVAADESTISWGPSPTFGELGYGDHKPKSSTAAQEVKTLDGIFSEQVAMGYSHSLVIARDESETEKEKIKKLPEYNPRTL

B1: purified human RalA (cloned into pFAT2) (natural protein, UniProt P11233 1-206, looked up)
chain: MAANKPKGQNSLALHKVIMVGSGGVGKSALTLQFMYDEFVEDYEPTKADSYRKKVVLDGEEVQIDILDTAGQEDYAAIRDNYFRSGEGFLCVFSITEMESFAATADFREQILRVKEDENVPFLLVGNKSDLEDKRQVSVEEAKNRAEQWNVNYVETSAKTRANVDKVFFDLMREIRARKMEDSKEKNGKKKRKSLAKRIRERCCIL
notes: RalA, human; The RalA of the GEF assay is called GST-tagged; also called Ras-related protein RalA; source: purified; cloned into pFAT2
binding result: binds
